Laboratory results published in patent US20140287471A1, “VARIANT CBH I POLYPEPTIDES WITH REDUCED PRODUCT INHIBITION” (BP CORPORATION NORTN AMERICA INC., priority 2011, published 2014).
Residue numbers refer to the chain shown, from its start. Names may count otherwise. Like-named read-outs stand apart in the source and are kept apart here.

B1: 268N: CBH I variant with site 268 mutated to asparagine (protein, UniProt P62694 18-513, looked up, variant R268N)
Exoglucanase 1: QSACTLQSETHPPLTWQKCSSGGTCTQQTGSVVIDANWRWTHATNSSTNCYDGNTWSSTLCPDNETCAKNCCLDGAAYASTYGVTTSGNSLSIGFVTQSAQKNVGARLYLMASDTTYQEFTLLGNEFSFDVDVSQLPCGLNGALYFVSMDADGGVSKYPTNTAGAKYGTGYCDSQCPRDLKFINGQANVEGWEPSSNNANTGIGGHGSCCSEMDIWEANSISEALTPHPCTTVGQEICEGDGCGGTYSDNNYGGTCDPDGCDWNPYRLGNTSFYGPGSSFTLDTTKKLTVVTQFETSGAINRYYVQNGVTFQQPNAELGSYSGNELNDDYCTAEEAEFGGSSFSDKGGLTQFKKATSGGMVLVMSLWDDYYANMLWLDSTYPTNETSSTPGAVRGSCSTSSGVPAQVESQSPNAKVTFSNIKFGPIGSTGNPSGGNPPGGNRGTTTTRRPATTTGSSPGPTQSHYGQCGGIGYSGPTVCASGTTCQVLNPYYSQCL
B2: 268S: CBH I variant with site 268 mutated to serine (protein, UniProt P62694 18-513, looked up, variant R268S)
Exoglucanase 1: B1 Exoglucanase 1 with N251S
B3: R411L (protein, UniProt P62694 18-513, looked up, variant R411L)
Exoglucanase 1: B1 Exoglucanase 1 with N251R, R394L
B4: R411T (protein, UniProt P62694 18-513, looked up, variant R411T)
Exoglucanase 1: B1 Exoglucanase 1 with N251R, R394T
B5: 268— Phe (protein, UniProt P62694 18-513, looked up, variant R268F)
Exoglucanase 1: B1 Exoglucanase 1 with N251F
B6: 268— Tyr (protein, UniProt P62694 18-513, looked up, variant R268Y)
Exoglucanase 1: B1 Exoglucanase 1 with N251Y
B7: 268— Asp (protein, UniProt P62694 18-513, looked up, variant R268D)
Exoglucanase 1: B1 Exoglucanase 1 with N251D
B8: R268Y (protein, UniProt P62694 18-513, looked up, variant R268Y)
Exoglucanase 1: B1 Exoglucanase 1 with N251Y
B9: 268A/411S: CBH I variant with site 268 mutated to alanine and site 411 to serine (protein, UniProt P62694 18-513, looked up, variant R268A R411S)
Exoglucanase 1: B1 Exoglucanase 1 with N251A, R394S
B10: R411Q (protein, UniProt P62694 18-513, looked up, variant R411Q)
Exoglucanase 1: B1 Exoglucanase 1 with N251R, R394Q
B11: R411V (protein, UniProt P62694 18-513, looked up, variant R411V)
Exoglucanase 1: B1 Exoglucanase 1 with N251R, R394V
B12: R411F (protein, UniProt P62694 18-513, looked up, variant R411F)
Exoglucanase 1: B1 Exoglucanase 1 with N251R, R394F
B13: R411C (protein, UniProt P62694 18-513, looked up, variant R411C)
Exoglucanase 1: B1 Exoglucanase 1 with N251R, R394C
B14: 268— His (protein, UniProt P62694 18-513, looked up, variant R268H)
Exoglucanase 1: B1 Exoglucanase 1 with N251H
B15: R268D (protein, UniProt P62694 18-513, looked up, variant R268D)
Exoglucanase 1: B1 Exoglucanase 1 with N251D
B16: R268T (protein, UniProt P62694 18-513, looked up, variant R268T)
Exoglucanase 1: B1 Exoglucanase 1 with N251T
B17: R268H (protein, UniProt P62694 18-513, looked up, variant R268H)
Exoglucanase 1: B1 Exoglucanase 1 with N251H
B18: R411D (protein, UniProt P62694 18-513, looked up, variant R411D)
Exoglucanase 1: B1 Exoglucanase 1 with N251R, R394D
B19: R411E (protein, UniProt P62694 18-513, looked up, variant R411E)
Exoglucanase 1: B1 Exoglucanase 1 with N251R, R394E
B20: 268— Glu (protein, UniProt P62694 18-513, looked up, variant R268E)
Exoglucanase 1: B1 Exoglucanase 1 with N251E
B21: R411P (protein, UniProt P62694 18-513, looked up, variant R411P)
Exoglucanase 1: B1 Exoglucanase 1 with N251R, R394P
B22: R268F (protein, UniProt P62694 18-513, looked up, variant R268F)
Exoglucanase 1: B1 Exoglucanase 1 with N251F
B23: 268_+411A Gln (protein, UniProt P62694 18-513, looked up, variant R268Q R411A)
Exoglucanase 1: B1 Exoglucanase 1 with N251Q, R394A
B24: R411N (protein, UniProt P62694 18-513, looked up, variant R411N)
Exoglucanase 1: B1 Exoglucanase 1 with N251R, R394N
B25: R268C (protein, UniProt P62694 18-513, looked up, variant R268C)
Exoglucanase 1: B1 Exoglucanase 1 with N251C
B26: R268R (protein, UniProt P62694 18-513, looked up)
Exoglucanase 1: B1 Exoglucanase 1 with N251R
B27: 411 S: CBH I variant with site 411 mutated to serine (protein, UniProt P62694 18-513, looked up, variant R411S)
Exoglucanase 1: B1 Exoglucanase 1 with N251R, R394S
B28: 268— Trp (protein, UniProt P62694 18-513, looked up, variant R268W)
Exoglucanase 1: B1 Exoglucanase 1 with N251W
B29: R268I (protein, UniProt P62694 18-513, looked up, variant R268I)
Exoglucanase 1: B1 Exoglucanase 1 with N251I

What was measured:
[1] = 4-MUL cellobiose tolerance/inhibition assay, dose-response IC50 (Example 2); type: biochemical; conditions: for Tolerance at 1 mM CB (MUL Data): 1 mM cellobiose
Protocol: (§1) CBH I activity on was measured using the 4-MUL assay using gluconolactone to inhibit any BG activity. The fluorogenic 4-MUL substrate (SIGMA) was prepared at 100 mM concentration in DMSO. Assays were run in black 96-well-flat-bottomed plates (Costar) and 4-MU fluorescence was read on a BioTek H4 plate reader (ex/em 365/450 nm). Assay plates were filled with buffer (final concentrations of 100 mM MES, pH 6, 25 mM gluconolactone, with or without cellobiose; cellobiose concentrations are listed with appropriate data sets), to which enzyme mixture was added (10-30 μl, 5 μg/mL final) and then assays were initiated by addition of 4-MUL (0.5 mM final concentration in 100 μl total volume). Enzyme mixtures were either CBH I variants from harvested supernatants or standards. Standards included: a negative control, consisting of harvested supernatant from the CBH I knock-out strain; a positive control, consisting of wild-type CBH I from harvested supernatants; and, a commercial CBH I standard (E-CBHI from Megazymes). Activity standards were run by serial dilution of commercial CBH I from 40 to 0.02 μg/mL and 4-MU (SIGMA, prepared at 20 mM in DMSO) (in dilution increments of 2-fold; all dilutions were made using harvested supernatant from the knock-out control). Kinetic rates were monitored over the first 15 mins following 4-MUL addition; initial rates were calculated based on data in the linear range. After 1 hr, a final endpoint read was taken, both before and after reaction quenching (100 μL of 200 mM Sodium Carbonate, pH 10.0). Activity was calculated for kinetic and endpoint reads; background resulting from the CBH I knock-out supernatant remained negligible. 4MU standard curves and HPLC quantification values were used to calculate specific activity.
Tolerance/inhibition values represent activity ratios and/or percent activity remaining/percent activity decreased in the presence versus the absence of cellobiose. Tolerant variants show less inhibition in the presence of cellobiose as compared to wild type, where an activity ratio of 1 (with vs. without a given concentration of cellobiose) is equivalent to 0% inhibition by cellobiose, or 100% tolerance. The effect of cellobiose on CBH I variant performance was monitored by dose-response in the 4MUL assay. Dose-response curves were generated by assaying variant activity in the presence of 6-8 different cellobiose concentrations ranging up to 100 mM cellobiose. CBH I samples were diluted to 5 μg/mL final concentration or were used directly in the case of protein quantification levels below 5 μg/mL. Half maximal inhibitory concentration (IC50) values were determined by plotting 4MUL activity versus cellobiose concentration and fitting with a four parameter dose-response fitting algorithm, with zero activity (or 100% inhibition) constrained to background activity (as established by CBH I knockout values) and with automatic outlier elimination (on GraphPad Prism 5).
Harvested supernatants from active variant isolates were evaluated for cellobiose tolerance at 1 mM cellobiose in the 4-MUL activity assay. Table 8 lists the tolerance of variants at 1 mM. […] Additional cellobiose concentrations at 0.25, 5, 10, 50, and 100 mM were tested leading to full dose-response curves for which half maximal inhibitory concentration (IC50) values were generated (Table 8). The IC50 values support that the variant library has decreased product inhibition, or increased tolerance to cellobiose, when compared to the wild-type enzyme (WT IC50=0.03 mM; see first entry, Table 8).
In one example, the cellobiose tolerance of the library was explored in more detail by generating dose-response curves and determining half maximal inhibitory concentration (IC50) values, the point at which the enzyme is 50% inhibited.

[2] = 4-MUL assay, specific activity (Example 2); type: biochemical; conditions: primary screening; 10 μL enzyme; n=1
Protocol: as §1
The specific activity (SA) of the variant library was evaluated in a secondary 4-MUL assay. […] On average, a mutation at position 268 increases the specific activity by 2.5 fold over that of wild type. A mutation at 268 in combination with 411 is around 1.5-1.6 fold higher than wild-type, on average.

[3] = Secondary screening, CBH I levels normalized to 5 μg/mL, cellobiose range 0.00085-100 mM, read-out: IC50
[4] = secondary screening, CBH I levels normalized to 5 μg/mL, cellobiose range 0.0001-100 mM, read-out: Average IC50
[5] = serine variants, unit not given in the legend, read-out: IC50 values (representative IC50 curves, FIG. 9)
[6] = Secondary screening, 30 μl harvested supernatant (CBH I levels lower than 5 μg/mL), cellobiose range 0.00085-100 mM, read-out: IC50
[7] = primary screening, 10 μL enzyme, cellobiose range 0.0001-100 mM, n=1, read-out: IC50 (MUL Data)

Molecule | IC50 [1, 3] [µM] | IC50 [1, 4] [µM] | further results
B1 | 482 | 405 | IC50 ([1]; averaged IC50 values from Tables 8-11, read-out: measured IC50 of cellobiose (merged values)): 490 µM
B2 | 452 | 406 | IC50 [1, 5]: 450 µM
B3 |  |  | IC50 [1, 6]: 6390 µM
B4 | 2000 |  | IC50 [1, 6]: 2020 µM
B5 |  |  | Tolerance at 1 mM CB (MUL Data) ([1]; primary screening, n=1): 21%; IC50 [1, 7]: 400 µM; SA (μmol 4 MU/min/mg) (MUL Data) [2]: 0.70 μmol 4 MU/min/mg
B6 |  |  | Tolerance at 1 mM CB (MUL Data) ([1]; primary screening, n=1): 35%; IC50 [1, 7]: 450 µM; SA (μmol 4 MU/min/mg) (MUL Data) [2]: 0.65 μmol 4 MU/min/mg
B7 |  |  | Tolerance at 1 mM CB (MUL Data) ([1]; primary screening, n=1): 44%; IC50 [1, 7]: 900 µM; SA (μmol 4 MU/min/mg) (MUL Data) [2]: 0.67 μmol 4 MU/min/mg
B8 | 434 | 344 | 
B9 |  |  | IC50 [1, 5]: 6800 µM
B10 |  |  | IC50 [1, 6]: 2510 µM
B11 | 2900 | 3190 | 
B12 | 7580 | 5390 | 
B13 | 1310 | 886 | 
B14 |  |  | Tolerance at 1 mM CB (MUL Data) ([1]; primary screening, n=1): 20%; IC50 [1, 7]: 250 µM; SA (μmol 4 MU/min/mg) (MUL Data) [2]: 1.21 μmol 4 MU/min/mg
B15 | 467 | 431 | 
B16 | 349 | 360 | 
B17 | 283 | 209 | 
B18 | 1580 |  | IC50 [1, 6]: 1640 µM
B19 |  |  | IC50 [1, 6]: 3380 µM
B20 |  |  | Tolerance at 1 mM CB (MUL Data) ([1]; primary screening, n=1): 52%; IC50 [1, 7]: 870 µM; SA (μmol 4 MU/min/mg) (MUL Data) [2]: 0.88 μmol 4 MU/min/mg
B21 | 1270 | 1050 | 
B22 |  |  | IC50 [1, 6]: 515 µM
B23 |  |  | SA (μmol 4 MU/min/mg) (MUL Data) [2]: −0.45 μmol 4 MU/min/mg
B24 |  | 6720 | IC50 [1, 6]: 7900 µM
B25 | 351 | 335 | 
B26 | 52 | 46 | 
B27 | 895 | 762 | IC50 [1, 5]: 890 µM
B28 |  |  | Tolerance at 1 mM CB (MUL Data) ([1]; primary screening, n=1): 42%; IC50 [1, 7]: 610 µM; SA (μmol 4 MU/min/mg) (MUL Data) [2]: 1.31 μmol 4 MU/min/mg
B29 | 484 | 320 | 
